Our source for the EC50 and Kd values is patent US20230203142A1 (published 2023).

Common to all, as to test: MST
The target of experiment [1] is human NDPK-A (nucleoside diphosphate kinase A), full-length recombinant (UniProt P15531 2-152).
Experiment [2] has as its target T1, recombinant human FABP4 (fatty acid binding protein 4) (UniProt P15090 2-132).
T1 chain: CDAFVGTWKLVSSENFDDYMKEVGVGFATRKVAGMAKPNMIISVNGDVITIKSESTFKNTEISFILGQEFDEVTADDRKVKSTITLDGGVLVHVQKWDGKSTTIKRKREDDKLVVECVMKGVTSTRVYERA

Experiment [3] addresses human ADK (adenosine kinase), recombinant (UniProt P55263 2-362).

What is called EC50 is the concentration needed to bring the measured effect to its halfway point. By Kd is commonly meant a measure of binding affinity in units of concentration.

Sequence of human NDPK-A (nucleoside diphosphate kinase A), full-length recombinant (P15531 other isoform, or with tags, fused parts or gaps): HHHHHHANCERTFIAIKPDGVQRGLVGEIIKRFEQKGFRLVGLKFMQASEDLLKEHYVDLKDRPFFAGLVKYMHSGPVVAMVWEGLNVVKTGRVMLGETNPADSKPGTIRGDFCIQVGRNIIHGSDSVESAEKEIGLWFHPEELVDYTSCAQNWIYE
Sequence of human ADK (adenosine kinase), recombinant (P55263 2-362): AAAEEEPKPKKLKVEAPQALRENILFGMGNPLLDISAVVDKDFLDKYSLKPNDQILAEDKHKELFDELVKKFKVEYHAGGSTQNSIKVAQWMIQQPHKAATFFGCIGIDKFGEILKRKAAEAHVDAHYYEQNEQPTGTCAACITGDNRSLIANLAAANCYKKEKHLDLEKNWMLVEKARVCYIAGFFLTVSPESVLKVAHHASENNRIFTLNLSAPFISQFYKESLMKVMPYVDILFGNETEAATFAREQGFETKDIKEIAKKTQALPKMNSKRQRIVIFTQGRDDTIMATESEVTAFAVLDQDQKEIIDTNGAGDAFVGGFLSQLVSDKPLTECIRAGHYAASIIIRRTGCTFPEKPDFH

B1: CA33 (a-Ab) monoclonal antibody (antibody)
heavy: QSVEESGGRLVTPGTPLTLTCTVSGFSLSTYYMSWVRQAPGKGLEWIGIIYPSGSTYCASWAKGRFTISKASTTVDLKITSPTTEDTATYFCARPDNDGTSGYLSGFGLWGQGLVTVSSAKTTPPSVYPLAPGSAAQTNSMVTLGCLVKGYFPEPVTVTWNSGSLSSGVHTFPAVLQSDLYTLSSSVTVPSSTWPSETVTCNVAHPASSTKVDKKIVPRDC
light: DVVMTQTPASVSEPVGGTVTIKCGASEDISRYLVWYQQKPGQPPKRLIYKASTLASGVPSRFKGSGSGTDFTLTISDLECDDAATYYCQCTYGTYAGSFFYSFGGGTEVVVERTDAAPTVSIFPPSSEQLTSGGASVVCFLNNFYPKDINVKWKIDGSERQNGVLNSWTDQDSKDCTYSMSSTLTLTKDEYERHNSYTCEATHKTSTSPIVKSFNRNEC
In the case of B1, the EC50 is 0.143 µM in experiment [1] and 1.88 µM in experiment [3]. Also, in experiment [2], the Kd came to 2.86 µM.
